Key:
SOD1(G93A) mice [1] = experiment: Intramuscular Salubrinal into one hindlimb of SOD1(G93A) mice: ER stress, UPR, microglia activation, neuromuscular junctions; type: in vivo
embryonic motor neuron = details: cited from earlier work
motoneurons = details: in vivo; cited from earlier work
SOD1(G93A) mice [2] = experiment: Intramuscular CNTF in SOD1(G93A) mice: stress responses in VUL MNs and microglia activation; type: in vivo
SOD1(G93A) mice [3] = details: intramuscular applications of CNTF; stated as known effect; cited from earlier work
[4] = system: murine models of inherited progressive motor degeneration; details: CNTF and/or BDNF; cited from earlier work
[5] = early treatment P14 until P32, analyzed at P39
[6] = early treatment P14 until P32, analyzed at P53
[7] = late treatment P39 until P50, analyzed at P53
[8] = CNTF intramuscular from P28 to P40

Q: What does the source list for O=C(/C=C/c1ccccc1)NC(NC(=S)Nc1cccc2cccnc12)C(Cl)(Cl)Cl (centres unmarked) [Salubrinal]?
A: disease process during the Salubrinal treatments (SOD1(G93A) mice [1]; early and late treatments taken together): partially reversed; disease process during administration (SOD1(G93A) mice [1]; early treatment P14 until P32): effectively arrested; UPR (SOD1(G93A) mice [1]; [5]): no evidence of a UPR; microglia activation (SOD1(G93A) mice [1]; [5]): no microglia activation; levels of BiP (SOD1(G93A) mice [1]; early treatment P14 until P32, analyzed at P39 (7 days after discontinuation)): low levels; loss of synaptic vesicles at neuromuscular junctions (SOD1(G93A) mice [1]; [6]): no loss; microglia activation (SOD1(G93A) mice [1]; [6]): mild microglia activation; UPR (SOD1(G93A) mice [1]; early treatment P14 until P32, analyzed at P53 (21 days after discontinuation)): early signs of a UPR; UPR (SOD1(G93A) mice [1]; [7]): mild UPR; loss of neuromuscular junction synaptic vesicles (SOD1(G93A) mice [1]; [7]): no loss; microglia activation (SOD1(G93A) mice [1]; [7]): mild microglia activation

Q: For IGF-1: neurotrophic factor, which “embryonic motor neuron survival in culture” value (embryonic motor neuron) is on record?
A: The value was “enhanced”.

Q: With LIF: cytokine as the molecule, how does the “embryonic motor neuron survival in culture” value (embryonic motor neuron) read?
A: Its value is “enhanced”.

B1: cardiotrophin-1: cytokine present in embryonic muscle (protein, UniProt Q16619 1-201, looked up)
Cardiotrophin-1: MSRREGSLEDPQTDSSVSLLPHLEAKIRQTHSLAHLLTKYAEQLLQEYVQLQGDPFGLPSFSPPRLPVAGLSAPAPSHAGLPVHERLRLDAAALAALPPLLDAVCRRQAELNPRAPRLLRRLEDAARQARALGAAVEALLAALGAANRGPRAEPPAATASAASATGVFPAKVLGLRVCGLYREWLSRTEGDLGQLLPGGSA
Q: For B1, which “motoneuronal death occurring naturally during embryonic development” value (motoneurons) is on record?
A: Its value is “reduction”.

Q: And the “embryonic motor neuron survival in culture” value (embryonic motor neuron)?
A: The value was “enhanced”.

B2: NT-3: member of the neurotrophin family (protein, UniProt P20783 139-257, looked up)
Neurotrophin-3: YAEHKSHRGEYSVCDSESLWVTDKSSAIDIRGHQVTVLGEIKTGNSPVKQYFYETRCKEARPVKNGCRGIDDKHWNSQCKTSQTYVRALTSENNKLVGWRWIRIDTSCVCALSRKIGRT
Q: With B2 as the molecule, how does the “embryonic motor neuron survival in culture” value (embryonic motor neuron) read?
A: Its value is “enhanced”.

B3: GDNF: neurotrophic factor (protein, UniProt P39905 78-211, looked up)
Glial cell line-derived …: SPDKQMAVLPRRERNRQAAAANPENSRGKGRRGQRGKNRGCVLTAIHLNVTDLGLGYETKEELIFRYCSGSCDAAETTYDKILKNLSRNRRLVSDKVGQACCRPIAFDDDLSFLDDNLVYHILRKHSAKRCGCI
Q: Which “motoneuronal death occurring naturally during embryonic development” value (motoneurons) does the source give for B3 here?
A: The value was “reduction”.

Q: And the “embryonic motor neuron survival in culture” value (embryonic motor neuron)?
A: The value was “enhanced”.

B4: NT-4: member of the neurotrophin family (protein, UniProt P34130 81-210, looked up)
Neurotrophin-4: GVSETAPASRRGELAVCDAVSGWVTDRRTAVDLRGREVEVLGEVPAAGGSPLRQYFFETRCKADNAEEGGPGAGGGGCRGVDRRHWVSECKAKQSYVRALTADAQGRVGWRWIRIDTACVCTLLSRTGRA
Q: With B4 as the molecule, how does the “embryonic motor neuron survival in culture” value (embryonic motor neuron) read?
A: Its value is “enhanced”.

B5: CNTF: CNTF rat recombinant protein (Sigma Aldrich); specific stress-protecting factor (protein, UniProt P20294 1-200, looked up)
Ciliary neurotrophic factor: MAFAEQTPLTLHRRDLCSRSIWLARKIRSDLTALMESYVKHQGLNKNINLDSVDGVPVASTDRWSEMTEAERLQENLQAYRTFQGMLTKLLEDQRVHFTPTEGDFHQAIHTLMLQVSAFAYQLEELMVLLEQKIPENEADGMPATVGDGGLFEKKLWGLKVLQELSQWTVRSIHDLRVISSHQMGISALESHYGAKDKQM
Q: Which results are given for B5?
A: motoneuronal death occurring naturally during embryonic development (motoneurons): reduction; upregulation of BiP in VUL MNs (SOD1(G93A) mice [2]; CNTF intramuscular from P20 to P28, before disease onset): completely prevented; UPR/UPS reaction (SOD1(G93A) mice [2]; [8]): effectively prevented; VUL MN BiP and Pi-elF2a signals (SOD1(G93A) mice [2]; [8]): normalized; activation of microglia on the spinal cord side ipsilateral to the treatment (SOD1(G93A) mice [2]; [8]): reduced; downregulation of stress-related protective pathways in VUL MNs (SOD1(G93A) mice [2]; [8]): counteracted; axonal pathology in VUL MNs (SOD1(G93A) mice [3]): effectively attenuates; disease progression (SOD1(G93A) mice [3]): slows; embryonic motor neuron survival in culture (embryonic motor neuron): enhanced; protective effect in two murine models of inherited progressive motor degeneration [4]: protective effect

B6: BDNF: member of the neurotrophin family (protein, UniProt P23560 19-247, looked up)
Neurotrophic factor BDNF …: APMKEANIRGQGGLAYPGVRTHGTLESVNGPKAGSRGLTSLADTFEHVIEELLDEDQKVRPNEENNKDADLYTSRVMLSSQVPLEPPLLFLLEEYKNYLDAANMSMRVRRHSDPARRGELSVCDSISEWVTAADKKTAVDMSGGTVTVLEKVPVSKGQLKQYFYETKCNPMGYTKEGCRGIDKRHWNSQCRTTQSYVRALTMDSKKRIGWRFIRIDTSCVCTLTIKRGR
Q: For B6, which “motoneuronal death occurring naturally during embryonic development” value (motoneurons) is on record?
A: The value was “reduction”.

Q: And the “embryonic motor neuron survival in culture” value (embryonic motor neuron)?
A: Its value is “enhanced”.

Q: What about the “protective effect in two murine models of inherited progressive motor degeneration” value [4] of the same molecule?
A: Its value is “protective effect”.
